Test results taken from article PMC2889927.

Assays:
Assay in all cases: flow cytometry on cells; PE-conjugated OCH-loaded human CD1d tetramers on human iNKT clones; 4°C, 45 min; mean fluorescence intensity
[1] = target: TCR of the human iNKT clone 4C1227, on the cells of the clone (human)
[2] = target: TCR of the human iNKT clone 4C1369, on the cells of the clone (human)
[3] = target: TCR of the human iNKT clone 4C862, on the cells of the clone (human)
[4] = target: TCR of the human iNKT clone 4C866, on the cells of the clone (human)
[5] = target: TCR of the human iNKT clone DN347, on the cells of the clone (human)

B1: PE-conjugated human CD1d tetramer loaded with OCH (complex)
chain: EVPQRLFPLRCLQISSFANSSWTRTDGLAWLGELQTHSWSNDSDTVRSLKPWSQGTFSDQQWETLQHIFRVYRSSFTRDVKEFAKMLRLSYPLELQVSAGCEVHPGNASNNFFHVAFQGKDILSFQGTSWEPTQEAPLWVNLAIQVLNQDKWTRETVQWLLNGTCPQFVSGLLESGKSELKKQVKPKAWLSRGPSPGPGRLLLVCHVSGFYPKPVWVKWMRGEQEQQGTQPGDILPNADETWYLRATLDVVAGEAAGLSCRVKHSSLEGQDIVLYWGGSYTSMGLIALAVLACLLFLLIVGFTSRFKRQTSYQGVL
- OCH-tet (MFI) [1]: 1230 MFI
- OCH-tet (MFI) [2]: 1370 MFI
- OCH-tet (MFI) [3]: 862 MFI
- OCH-tet (MFI) [4]: 866 MFI
- OCH-tet (MFI) [5]: 347 MFI
